Experimental data reported in paper PMC8693863.

Biological target: Myomaker (MYMK) (mouse (endogenous in primary myoblasts)) (UniProt Q9D1N4)
Assay: proximity ligation; Duolink PLA on primary mouse myoblasts fixed with 4% PFA, 24 h after DMSO (Ctrl) or ERKi; antibody pairs anti-TMEM8C + anti-CaMKII, or anti-CaMKII + anti-Rac1; mean fluorescent intensity normalized to nuclei number per field

Sequence of UniProt Q9D1N4 (Q9D1N4 whole entry): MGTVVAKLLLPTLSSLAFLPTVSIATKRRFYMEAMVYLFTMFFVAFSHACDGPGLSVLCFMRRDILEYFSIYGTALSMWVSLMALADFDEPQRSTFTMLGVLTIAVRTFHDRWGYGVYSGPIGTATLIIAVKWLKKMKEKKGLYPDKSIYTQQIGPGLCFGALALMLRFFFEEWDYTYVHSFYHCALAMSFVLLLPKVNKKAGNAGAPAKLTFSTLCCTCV

fold increase of PLA signal mean fluorescent intensity, ERKi against DMSO control: 2.9 fold
Substance: CaMKII (from UniProt Q6PHZ2 1-499) (natural protein)
